Target: T1, recombinant Strep-Flag-IL-17 (SF-IL-17), murine (mouse), Q62386
T1 chain: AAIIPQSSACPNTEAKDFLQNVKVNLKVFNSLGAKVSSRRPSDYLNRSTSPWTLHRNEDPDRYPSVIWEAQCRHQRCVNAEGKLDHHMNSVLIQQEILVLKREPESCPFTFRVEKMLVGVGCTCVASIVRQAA
Test: SDS-PAGE without and with DTT, Coomassie stain; purified SF-IL-17 in SDS sample buffer, untreated or reduced with 50 mM DTT
Conditions: remark: other sources report otherwise

- stoichiometry N: 2
B1: recombinant Strep-Flag-IL-17 (SF-IL-17), murine, Q62386 26-158 (ligand)
chain: T1 chain

Source: article PMC7459424
